# Measured values: doi:10.1101/2020.02.11.943977
# Where two headings read alike, the source gives them in different places.
# B1: RNA-DNA hybrid nos. 501/212 (DNA:RNA)
# RNA: GAAGCAUUUAUCAGGGUUAUUGUCUCAUGAGCGGAUACAUAUUUGAAU
# DNA: ATTCAAATATGTATCCGCTCATGAGACAATAACCCTGATAAATGCTTC
# B2: dsDNA nos. 211/212 (dsDNA)
# DNA 1: GAAGCATTTATCAGGGTTATTGTCTCATGAGCGGATACATATTTGAAT
# DNA 2: B1 DNA
# Legend:
# Assay in all cases: EMSA
# [1] = target: T1, Replication protein A (RPA heterotrimer) (human, UniProt P27694;P15927;P35244 1-616;1-270;1-121)
# [2] = target: T1, Replication protein A (RPA heterotrimer); remark: listed apart in the source
# [3] = target: T1, Replication protein A (RPA heterotrimer); remark: listed apart in the source
# [4] = target: T1, Replication protein A (RPA heterotrimer); remark: listed apart in the source
# [5] = target: T1, Replication protein A (RPA heterotrimer); remark: listed apart in the source
# T1 sequence (P27694 whole entry, chain 1 of 3): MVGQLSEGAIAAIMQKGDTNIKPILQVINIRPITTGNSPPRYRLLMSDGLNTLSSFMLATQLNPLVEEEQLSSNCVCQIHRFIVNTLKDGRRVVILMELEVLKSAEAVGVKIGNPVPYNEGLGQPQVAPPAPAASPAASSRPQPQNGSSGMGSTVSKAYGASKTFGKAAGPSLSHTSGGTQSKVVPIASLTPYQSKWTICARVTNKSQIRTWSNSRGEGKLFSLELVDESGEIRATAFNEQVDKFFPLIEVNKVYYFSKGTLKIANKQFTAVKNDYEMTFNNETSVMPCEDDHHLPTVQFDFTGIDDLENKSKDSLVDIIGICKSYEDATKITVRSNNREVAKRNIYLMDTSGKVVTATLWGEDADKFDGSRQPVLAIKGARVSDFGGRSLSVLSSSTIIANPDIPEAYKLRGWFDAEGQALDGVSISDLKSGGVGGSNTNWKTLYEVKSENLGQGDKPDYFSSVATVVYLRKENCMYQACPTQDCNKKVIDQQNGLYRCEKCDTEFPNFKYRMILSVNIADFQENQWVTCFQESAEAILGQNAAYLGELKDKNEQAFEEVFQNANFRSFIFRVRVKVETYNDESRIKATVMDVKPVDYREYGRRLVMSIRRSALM
# T1 sequence (P15927 whole entry, chain 2 of 3): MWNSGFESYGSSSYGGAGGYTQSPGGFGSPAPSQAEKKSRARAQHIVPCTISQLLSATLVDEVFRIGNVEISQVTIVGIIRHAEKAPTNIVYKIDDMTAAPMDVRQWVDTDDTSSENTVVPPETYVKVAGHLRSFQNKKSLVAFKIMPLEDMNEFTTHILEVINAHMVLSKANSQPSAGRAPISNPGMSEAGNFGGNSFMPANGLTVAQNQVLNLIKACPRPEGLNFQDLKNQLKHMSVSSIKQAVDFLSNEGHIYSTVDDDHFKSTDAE
# T1 sequence (P35244 whole entry, chain 3 of 3): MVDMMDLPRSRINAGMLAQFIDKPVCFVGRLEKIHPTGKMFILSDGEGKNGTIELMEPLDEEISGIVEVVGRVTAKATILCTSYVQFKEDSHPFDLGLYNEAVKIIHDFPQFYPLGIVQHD
binder,measurement,setting,value
GAAGCAUUUAUCAGGGUUAUUGUCUCAUGAGCGGAUACAUAUUUGAAU (ssRNA) [RNA no. 501],Kd,[1],72 ± 10.2 pM
same,Kd,[2],101 ± 17 pM
B1,Kd,[2],85900 ± 4500 pM
GAAGCAUUUAUCAGGGUUAUUGUC (ssRNA) [RNA no. 5R (24 nt)],apparent K (half saturation),[3],120 nM
AAUGCUUAAUCAGUGAGGCACCUAUCUCAGCGAUCUGUCUAUUUCGUU (ssRNA) [RNA no. 3R],Kd,[4],100 ± 23.2 pM
CGUUAAGGGAUUUUGGUCAUGAGAUUAUCAAAAAGGAUCUUCACCUAG (ssRNA) [RNA no. 7R],Kd,[5],248 ± 32.7 pM
GAAGCATTTATCAGGGTTATTGTCTCATGAGCGGATACATATTTGAAT (ssDNA) [ssDNA no. 211],Kd,[2],3.1 ± 0.6 pM
B2,Kd,[2],35500 ± 7000 pM
GAAGCAUUUAUCAGGGUUAUUGUCUCAUGAGCGGAU (ssRNA) [RNA no. 6R (36 nt)],apparent K (half saturation),[3],65 nM
UUUUAAAUCAAUCUAAAGUAUAUAUGAGUAAACUUGGUCUGACAGUUA (ssRNA) [RNA no. 8R],Kd,[5],62.9 ± 8.2 pM
